# In the DeepSol protein solubility set:
# Assay: soluble on expression in E. coli; label from the status in PepcDB or PDB records
row,Sequence,soluble on expression in E. coli
1,MRHISIFGTSSDAGKSTLTFVIAKILQRAGIRVAPFKAQNVSNNARVCDDGSEIAIAQSFQAEVLAIPTSYHLNPILLKSGINGQASVIVEGQVISQQDVLEYYRDLDTLKPAVQRCFETLAKMYDCIVAEGAGSPVELNLMDKDLSNIFIAKHYQTKIILVADIEKGGVFASVWGTYNLLPADLRSNVIGVIINKFRGDLSLFDEGIRIIEQAFKIPVLGVLPYMPFNLGFEDNASLQNFVQQPRQKKLKIGVIAYPYMSNYNDFEPLIADDEVLLEFINSPISLEHFDGVILPGSKLVIEDLHWLKTNGLFEQLQQRRKPIFAICGGYEMLFEQLHDPERIENLEPTTATGLGLIDDEIYFAKNKILNKAEYPIFGLNIAGFEMHHGISQKYPLYFQKDNIQGTFIHQVFDHNAFRTQYLRAICAQYQGFDFQLYKTEQINNFIEACRKRLNVKLILEAIQDQ,not soluble
2,MGSDKIHHHHHHMTCAFARTVESRFAELTPTAKRIASYMLANLDRLGLETADQIAQQTGTSGISVGRFLRSVGYRNLDDLKRELRGGADRPWMITDRLDEYRRTNGTNGTAGTQAAAIHSDDRALASSLDRELDAIRHVYRLAEEPVFAQVADRIAHADAVFILGIQSTRGISNAFSSYLEYLRPRVFYSDGQSGSYVDSLNSEFERPYCIVTDVRAYSRSARRYCQAAAERGQPFALVTDLYCPWAREWPADLLQVKTDVGQFWDSLAPLTCLFNLLITAVVDRLGPAIDRRVARNRELQHTFDQFES,not soluble
3,MGSDKIHHHHHHMKIALIATEKLPVPSVRGGAIQIYLEAVAPLIAKKHEVTVFSIKDPNLADREKVDGVHYVHLDEDRYEEAVGAELKKSRFDLVHVCNRPSWVPKLKKQAPDAVFILSVHNEMFAYDKISQAEGEICIDSVAQIVTVSDYIGQTITSRFPSARSKTKTVYSGVDLKTYHPRWTNEGQRAREEMRSELGLHGKKIVLFVGRLSKVKGPHILLQALPDIIEEHPDVMMVFIGSKWFGDNELNNYVKHLHTLGAMQKDHVTFIQFVKPKDIPRLYTMSDVFVCSSQWQEPLARVHYEAMAAGLPIITSNRGGNPEVIEEGKNGYIIHDFENPKQYAERINDLLSSSEKRERLGKYSRREAESNFGWQRVAENLLSVYEKNR,not soluble
4,MDDDFLPRRLKYSKHSLMLVALDYIPKELHKCLDMDRLEDVSAGGAYTTKQMLEEILNSDSRFRIYGNAEVFEKLLEKYMNFTSCREKFGFEKLQVLCVPIPMSPNLKGEKYLTKQDMFEHVQFYLMDVFHHTGFPFDNVVISLAFIKFRADRLNGCMEFVSNAREVLNSIESEIDQFLDELLDILNAEYFPKNYALPSKNPSFDTLYKQWKSFFPDWKPDELDSIQRFLEDRYSHLPPHKNAEKYGGILFVNHYLTNKYRELIDSRPEVFLPYNAMNRHKAPITVRVILFKDTKLVLRGELYKAMNQAYPDRVPIDYTDDLEEGIIYAMNFEDVFKEFGDLWYDIEFILTKVTRTNNATPILTLSGEFCIPGLQAFYNIFHVMNNVLRLFQKVKKEMWHFVCGYVKILEVRLKPFEDTPCFITNTALETIIQELCEYWRMFENAPFKDIRTVKGATFTADDLKNELSHIGVLDIFPELGELVDTGYQAILEVKQNADNLKTWDLMDYLESTLIFCFSSRFEFLNNLLEIQEGIHPKNENLANIFLGITSKPENLLPYLIDKSRYQDVLPTVPLERHRVRVTYNFSIDDETISEPTPVPQQLEKKTENCSECNDVRMEMNTVKDVLQNVQKQLKNMQQNSEQFETKLVASDNKTKNFEKQLEDERRKNNKHLESSRKTLISKNEQLEALKRRATALSNCQAENQTLKFKIAEHHLLEKQLNISNKDVTQARDQLSGQISELEIQLKSELKTVQHLKKEQTISCNLTNEITKLKDQIEREKLCSKQLEKEISQLRTEADEMNIVMTQSLEMENLQLRDATKKFETENASLLKTNQQLSIQNEEQKRLIQVLLEKQQTAPSSSDFPVPSTQMTDNEENSRQQLWKYQKIKDSFRDGIKLRKAEAMVKKLTSLNRDPGVHQMAHRELENFKKLTSHYLQAIEMNILKIKNNGSSDLEQLPEAPKFSDEFMRFYRNATGKQTLTSASFSSGNSRGTQSYGSSISTMPSTSSRGNVQHHSGSAVRGQSITPTGLSQVPMSPRKLFSQPNIVTASITSTELDDTECAICLDEMTNFKETIKCQCRRRFHLECATKWLNEKRECPTCRKLLLNPSDYPPLN,not soluble
5,MGSDKIHHHHHHMEKNYYLTKTEQRIFNVIKHAKIITVREVAELFPELSRNMICKALSSLEKKGYLYRIKNGLYLIQQAPTKGSIIIEDPYRIALAMFSGYIAFSSALRLYNLIEYEPFTVFVATPRKSKKVEIDNYIIQAVALGEKATGITLYNGVYTSTLAKTFFDCFYKPQYCGGYETITKALYEAESIDWKEFLDYFKRFASPSLFQRTGYILELMNKELNFKIPKEVLEFFRSKVETKTKLVPTSPSRGKFIKEWKLLDNLGKDKILGWAYGY,not soluble
6,KESCKMFIGGLNWDTTEDNLREYFGKYGTVTDLKIMKDPATGRSRGFGFLSFEKPSSVDEVVKTQHILDGKVIDPKRAIPRDEQDKTGKIFVGGIGPDVRPKEFEEFFSQWGTIIDAQLMLDKDTGQSRGFGFVTYDSADAVDRVCQNKFIDFKDRKIEIKRAEPRH,soluble
7,MCLICDRIKMIKINQNKFFVKELKTGYVVLGDNQHFKGYTLFLYKEHENELYQLEPNEKLNFLEEMSLVGEAVSKAFECEKMNYELLGNGDSHLHWHLFPRISGDLGEYGYYGKGPVWWYPREKMYSTDNEPTDEELEKLKQRLNVELDRLFYEKLEHHHHHH,not soluble
8,MGSDKIHHHHHHMSTPPVDVCYKVNAPLSSQQFVELLAKTSLGPRRPLDDETAITGMLKHANLLVSAWQGETLVGIARSVTDFHFCCYLSDLAVSDDFQHAGIGKKLIQQTAQQLGKGCKIILLAAPLAVDYYPKLGFEKHNSAWLMAASDLHSEA,not soluble
9,SNAMSKQLLALNIDGALLRSNGKIHQATKDAIEYVKKKGIYVTLVTNRHFRSAQKIAKSLKLDAKLITHSGAYIAEKIDAPFFEKRISDDHTFNIVQVLESYQCNIRLLHEKYSIGNKKKVNSNLLGKALIHPSDPIFYPVQFVESLSDLLMDEPVSAPVIEVYTEHDIQHDITETITKAFPAVDVIRVNDEKLNIVPKGVSKEAGLALVASELGLSMDDVVAIGHQYDDLPMIELAGLGVAMGNAVPEIKRKADWVTRSNDEQGVAYMMKEYFRMQQRKGFLDKFHMKR,soluble
10,GPLGSSYSMEQVEGITSEYIVKNADMFAVAVSLVSGKILYISNQVASIFHCKKDAFSDAKFVEFLAPHDVSVFHSYTTPYKLPPWSVCSGLDSFTQECMEEKSFFCRVSVGKHHENEIRYQPFRMTPYLVKVQEQQGAESQLCCLLLAERVHSGYEAPRIPPEKRIFTTTHTPNCLFQAVDERAVPLLGYLPQDLIETPVLVQLHPSDRPLMLAIHKKILQAGGQPFDYSPIRFRTRNGEYITLDTSWSSFINPWSRKISFIIGRHKVRVGPLNEDVFAAPPCPEEKTPHPSVQELTEQIHRLLMQPVP,soluble
11,MGSDKIHHHHHHLKLTKNIVSIVTDVILNESEAIKNLVNHINDDFQHIIDAILSCKGRVVITGIGKSAIIGNKIVATLNSTGTPALFMHAADAIHGDLGMIQGGDVVICISKSGNTPEIKVLVPLIKNRGTILIGMVGNVDSYLAVQSDYVLNVTVEREACPNNLAPTTSTTATLVMGDALAVALLECRNFSSEDFAQLHPGGALGKQLYLRVNDVYTANEKPMVAPDATVKDVILEISSKRLGAAAVVDSAGILQGIITDGDLRRMLNAHDSFKQLCAADIMTKAPKTIDADEFAASAMLLMQSKNITQLIVMKNENFAGFIHIHDLLKEGIV,not soluble
12,MGSDKIHHHHHHMSASMPAYMSDPTDEQLSALNMAMDHKSFKVVAYAGAGKTTTLKLIGERLRGRGLYLAFNKAIANDARAKFPSHVECRTFHSLAYRHVARDITAKLSLPRFSPKRLGDDLGLQPVQVRRQMDGVNKYITLTPARLSRFVSDAISNFCSTHASYPAPRHILFPSWLDGSDAEQLREMLYPAVEQRWLQSIDARHPAGIGHDIYLKLWALSKPSIPADFILFDEAQDADPLMMGILTQQPRQVIYVGDAHQQIYEWRGAVNAMKRLPLPQTLLTQSFRFGEPIAEIANTLLKALQEDVPLKGNPNKQSSTDKGMVHSKKDAILCRTNAAAMSQLLTGLKLGHKVALQADTDRMLKFCQAAENLKNGKSAYGVPELAYFYNWGDVQEYSETNEGSDLKTLVKLVDDHGTNVLSQAVNSLSSIENADYVISTAHKAKGLEWGKVQLDDDFYYDVTTNAVKISPEELRLLYVACTRAQSNLDIHNIKDLISGLQTGKKVVFGNS,not soluble
13,GAMDIVVNDDLSCRFLEGFNTRDALCKKISMNTCDEGDPFFVADLGDIVRKHETWKKCLPRVTPFYAVKCNDDWRVLGTLAALGTGFDCASNTEIQRVRGIGVPPEKIIYANPCKQISHIRYARDSGVDVMTFDCVDELEKVAKTHPKAKMVLRISTDDSLARCRLSVKFGAKVEDCRFILEQAKKLNIDVTGVSFHVGSGSTDASTFAQAISDSRFVFDMGTELGFNMHILDIGGGFPGTRDAPLKFEEIAGVINNALEKHFPPDLKLTIVAEPGRYYVASAFTLAVNVIAKKVTPGVQTDVGAHAESNAQSFMYYVNDGVYGSFNCILYDHAVVRPLPQREPIPNEKLYPSSVWGPTCDGLDQIVERYYLPEMQVGEWLLFEDMGAYTVVGTSSFNGFQSPTIYYVVSGLPDHVVRELKSQKS,soluble
14,MGSDKIHHHHHHAGELNLYSMNTGSYVYHMTGNHGQYNEHFNNNFFSVERKFSQDSKYSVLVGTMKNSFDDRCLTLGVRRDWLKNDTGWVLKGVYAYTGEFFFDAFSHCGDSGTYRTAKKITGIGFSPYLYHGLQYNFTDYFGVEGGIIVPAIFVMSVQWSFR,not soluble
15,TASIGAAAILGAPIMHDFCHISLSDLMTPWEVIEKRLRLAAEADFVICLYNPRSKGRSEHLSKAFKIMGEFKGGDTPVGVVKDVGREKEEKFVCTFENMDFEKVDMTTMVIIGNKSTY,not soluble
16,MGNICIGGPRMSQQVYSPERADTPQRNALREQTEADIEQNSESMRLQQKIDDLKPYVSNATGPMKAYGQAAMDRASGKKTYVSFAELDAEHLDAMVDVENQRNPDLNLRYFKHHKEFIQALESDGPSSFRAIYPLTKPRTGQAAKHHVMADVRLTPCEPPSIVITEPGVIVGKRNKQLHRHNQTLEDLSESGVQLSQVAIIETQAQKTPDDCVMYCLNYAIKAHKNADKFDDIHHGLQRGTFVNRINGRRVQDADHCGHF,not soluble
17,GPGSMTDCWYIPEAVADRRDENRLSPNVPASYEVLGEAGIFYRHFDSEEVNDNIEGFIQPLLKKLNYQSYDVVNLSPANLGAEKFETLAEQHFMEHIHEDDEVRLILEGQGYFDVRDINDKWIRLLLKPGDCIVVPAGMYHRFTTDQSKCIKTLRIFKEAPQWIALNRGPEAEEKPARKEYLARLHAPAETAVGAVNGRTIFSLRYPLKLDAELTVITKRLLEQHSKQPLALAIYLTGSTDPTTGESWCPDCVLAKLHVARRFAELQGTYGKEHAIFLQLPVERASYLGNPNFFYRTHPILQLASVPTLLVLSPAKDAKEGGDVQWYDLLDVKVRTCDVDRTDVLNLE,soluble
18,MSHHKLEVKNLSFTYPDGHKAIDGISFTVRHGESVGIVGENGAGKSTLLLVLMGVLFPNQGEVRVGDVRVTKKTLPLIRQRLGMVFQNPDDQLFMTTVYDDVAFGPRNYKLDEKEVEDRVMKSLDMVGISHLKDKAPYKLSGGEKRAAAIATVLSMQPDILVMDEPTSSLDPRSRRRVMELLKNFEHTKIITSHDLDMVLEICERTIVLKQGKVAADGLTSEILADKELMNTCGLEVPLALQGCPVCGEKKKYV,soluble
19,MSWIPFKIGQPKKQIVSKTVERDFEREYGKLQQLEEQTKRLQKDMKKSTDADLAMSKSAVKISLDLLSNPLCEQDQDFLRMVTALDTAMKRMDAFNQEKVNQIQKTVIEPLKKFGSIFPSLNMAVKRREQALQDYGRLQAKVEKYEEKEKTGPVLAKLHQAREELRPVREDFEAKNKQLLDEMPRFYNSRLDYFQPSFESLIRAQVIYYSEMHKIFGDLTQQLDQPGHSDEHRERENETKLSELRALSIVADD,not soluble
